Laboratory results: article PMC6262447

Target: NADPH-dependent thioredoxin reductase from Methanosarcina mazei strain Gö1 (Methanosarcina mazei strain Gö1)
Assay: SEC; Sephacryl S-300 gel filtration in 10 mM Tris-HCl pH 7.6, 100 mM NaCl, 2 mM 2-mercaptoethanol; column calibrated with the Bio-Rad Gel Filtration Standard; monomer to dimer

- stoichiometry N: 2
Substance: NADPH-dependent thioredoxin reductase from Methanosarcina mazei strain Gö1 (enzyme)
